Test [1] deals with T1, RSV Pre-F protein (pre-fusion conformation of the F protein of RSV A2 strain) (RSV A2 strain, UniProt P03420 26-513).
T1 construct: Recombinant trimeric protein; also called pre-fusion F protein; antigen Pre-F protein
In words: SPR (Biacore X100), TRN1021 captured on anti-human IgG (Fc), Pre-F as analyte at 2.5-40 µg/mL. Background: Surface plasmon resonance follows binding to a sensor surface in real time, without labels.

In test [2] the target is T1, RSV Pre-F protein (pre-fusion …). In words: ELISA, RSV Pre-F coated on the plate, TRN1021 in 3-fold dilutions, anti-human IgG-HRP, OD450.

The Kd is the concentration at which binding is half-saturated. By EC50 (read off the curve) is commonly meant the concentration needed to bring the measured effect to its halfway point. Read a high EC50 (read off the curve) as weaker potency.

T1 sequence (P03420 26-513): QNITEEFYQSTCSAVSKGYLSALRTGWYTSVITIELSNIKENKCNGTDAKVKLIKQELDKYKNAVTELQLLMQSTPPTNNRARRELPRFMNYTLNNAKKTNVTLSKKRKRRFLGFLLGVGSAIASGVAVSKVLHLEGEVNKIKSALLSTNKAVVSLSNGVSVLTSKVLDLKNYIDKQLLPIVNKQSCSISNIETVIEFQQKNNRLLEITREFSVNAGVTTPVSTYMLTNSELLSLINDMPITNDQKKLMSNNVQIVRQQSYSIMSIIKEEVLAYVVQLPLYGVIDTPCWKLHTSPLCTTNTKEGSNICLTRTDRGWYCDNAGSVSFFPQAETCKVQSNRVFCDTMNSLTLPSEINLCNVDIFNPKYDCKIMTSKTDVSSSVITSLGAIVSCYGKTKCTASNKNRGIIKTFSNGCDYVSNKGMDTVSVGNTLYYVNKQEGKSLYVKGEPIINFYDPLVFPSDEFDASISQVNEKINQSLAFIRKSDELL

B1: fully human anti-RSV monoclonal antibody TRN1021 (antibody, V domains shown)
VH: QVQLVQSGAEVKKPGESLKISCQGSGYSFNNYYIGWVRQMPGKGLEWMVIIYPGDSDTKYSPSFQGQVTVSADRSINTAYLQWSSLRASDTAVYYCVRMDTVTTGAGVGFNWFFDLWGRGTLVTVSS
VL: EIVLTQSPATLSVSPGERATLSCRASQSVTSYLAWYQQKPGQAPRLLIYGASSRATGVPARFSGSGSETEFTLTISSLQSEDFAVYYCQQYNDWPAITFGQGTRLENK
notes: It was expressed in HEK293 cells as a whole human antibody, purified on Protein A, detected with anti-human IgG and captured through anti-human IgG (Fc); also called fully human anti-RSV-F protein monoclonal antibody TRN1021
Consider B1, for which the dissociation constant Kd in test [1] is around 1 nM. For the same molecule, the “EC50 (read off the curve)” value in test [2] was around 8 ng/mL.

Values taken from patent publication US20240059763A1 (ZHUHAI TRINOMAB PHARMACEUTICAL, published 2024).
